# Test results from patent publication US20220110936A1, “PHARMACEUTICAL COMPOSITION FOR TREATMENT OF NEURODEGENERATIVE DISEASES OR DISEASES CAUSED BY ABNORMALITY OF RNA BINDING PROTEIN AND APPLICATIONS THEREOF” (Shanghai Institute of Organic Chemistry, Chinese Academy of …, priority 2019, published 2022).
# B1: PARG protein: purified PARG protein (Sigma), poly(ADP-ribose) glycohydrolase (protein, UniProt Q86W56 1-976, looked up)
# Poly(ADP-ribose) …: MNAGPGCEPCTKRPRWGAATTSPAASDARSFPSRQRRVLDPKDAHVQFRVPPSSPACVPGRAGQHRGSATSLVFKQKTITSWMDTKGIKTAESESLDSKENNNTRIESMMSSVQKDNFYQHNVEKLENVSQLSLDKSPTEKSTQYLNQHQTAAMCKWQNEGKHTEQLLESEPQTVTLVPEQFSNANIDRSPQNDDHSDTDSEENRDNQQFLTTVKLANAKQTTEDEQAREAKSHQKCSKSCDPGEDCASCQQDEIDVVPESPLSDVGSEDVGTGPKNDNKLTRQESCLGNSPPFEKESEPESPMDVDNSKNSCQDSEADEETSPGFDEQEDGSSSQTANKPSRFQARDADIEFRKRYSTKGGEVRLHFQFEGGESRTGMNDLNAKLPGNISSLNVECRNSKQHGKKDSKITDHFMRLPKAEDRRKEQWETKHQRTERKIPKYVPPHLSPDKKWLGTPIEEMRRMPRCGIRLPLLRPSANHTVTIRVDLLRAGEVPKPFPTHYKDLWDNKHVKMPCSEQNLYPVEDENGERTAGSRWELIQTALLNKFTRPQNLKDAILKYNVAYSKKWDFTALIDFWDKVLEEAEAQHLYQSILPDMVKIALCLPNICTQPIPLLKQKMNHSITMSQEQIASLLANAFFCTFPRRNAKMKSEYSSYPDINFNRLFEGRSSRKPEKLKTLFCYFRRVTEKKPTGLVTFTRQSLEDFPEWERCEKPLTRLHVTYEGTIEENGQGMLQVDFANRFVGGGVTSAGLVQEEIRFLINPELIISRLFTEVLDHNECLIITGTEQYSEYTGYAETYRWSRSHEDGSERDDWQRRCTEIVAIDALHFRRYLDQFVPEKMRRELNKAYCGFLRPGVSSENLSAVATGNWGCGAFGGDARLKALIQILAAAAAERDVVYFTFGDSELMRDIYSMHIFLTERKLTVGDVYKLLLRYYNEECRNCSTPGPDIKLYPFIYHAVESCAETADHSGQRTGT
# Test system: hnRNP A1
# Assay: Immunoprecipitation/WB of hnRNP A1-Flag from HeLa cells with PARG added to the IP system
# Assay type: biochemical, human
# Method: The steps of HeLa cell culture and plasmid transfection are as described in Example 1. To increase the level of PARylation in HeLa cells after transfection with the plasmids described in 3.1.1, the cell culture medium was removed before collection, 500 μM hydrogen peroxide (diluted in PBS) was added to the cells followed by incubating for 10 min at 37° C. The stimulated HeLa cells can be used for subsequent experiments.
# Cells treated according to 3.1.2 were lysed with the following lysis buffer: 25 mM Tris-HCl pH 7.4, 150 mM NaCl, 1% NP-40, 1 mM EDTA, 5% glycerol, protease inhibitor (Roche), 20 μM Olaparib (Selleck) and 8 μM ADP-HPD (Millopore). For enrichment of TDP-43 with HA tag, the lysate was added with HA antibody (Mouse anti-HA (Proteintech)) for overnight incubation at 4° C. followed by enrichment of primary antibody-sample complexes with Dynabeads® Protein G beads (Novex) for 2 hours at room temperature; for Flag-tagged hnRNP Al, the lysate was added directly to anti-FLAG® M2 Affinity Gel (Sigma) followed by incubation at 4° C. To ablate the polyribose moiety in vitro, 1μ purified PARG protein (Sigma) was added to a mixture of anti-FLAG® M2 Affinity Gel (Sigma) and cell lysate, and incubated for 1 h at 37° C. After incubation, the product was washed 3-5 times with lysis buffer, and added with 4×LDS sample buffer (Invitrogen) and boiled at 95° C. for subsequent studies. […]
molecule,measurement,setting,value
B1,amount of endogenous TDP-43 protein co-precipitated with hnRNP A1,added to the IP system,significantly reduced
same,PARylation level of hnRNP A1 itself and PARylated proteins that interact with it,"hydrogen peroxide-stimulated HeLa, added to the IP system for 1 h",significantly reduced
